This note sets out measurements from FireProtDB (doi:10.1021/acs.biochem.7b00833).

Where “and” joins values, the source holds several entries; their conditions need not be identical. Equal values may be shown once.

Sequences and labels used below:
B1: SCO1 protein homolog, P54178 (parent)
chain: MKVIKGLTAGLIFLFLCACGGQQIKDPLNYEVEPFTFQNQDGKNVSLESLKGEVWLADFIFTNCETICPPMTAHMTDLQKKLKAENIDVRIISFSVDPENDKPKQLKKFAANYPLSFDNWDFLTGYSQSEIEEFALKSFKAIVKKPEGEDQVIHQSSFYLVGPDGKVLKDYNGVENTPYDDIISDVKSASTLK

Variants of B1 are the subject of the data set. The settings on record: Bacillus subtilis (strain 168), pH 7, CD, Sodium Phosphate Buffer, structure 1XZO, whole UniProt chain shown; for ddG of mutation (higher = less stable) / denaturant m value / unfolding free energy / denaturant midpoint (higher = more stable): 25 °C, Urea.

As to F61W, the “ddG of mutation (higher = less stable)” value is -2.87 kcal/mol, the denaturant m value worked out at 4.24 kcal/mol/M and the unfolding free energy was 12.8 kcal/mol. The “change of melting temperature, mutant - wild type (higher = more stable)” value (“change of melting temperature, mutant” for short) (Thermal) is 4.3 °C and -0.6 °C.

For W120F, the “ddG of mutation (higher = less stable)” value came out at 2.89 kcal/mol, the denaturant m value worked out at 3.93 kcal/mol/M, the “denaturant midpoint (higher = more stable)” value (“denaturant midpoint” below) is 1.77 M and the unfolding free energy was determined as 7.04 kcal/mol. In addition, the Tm (Thermal) was determined as 43.5 °C.

As to W55A F61W, the “ddG of mutation (higher = less stable)” value was determined as 8.03 kcal/mol, the denaturant m value was determined as 3.74 kcal/mol/M, the “denaturant midpoint” value was 0.8 M and the unfolding free energy was determined as 1.9 kcal/mol.

W120F F61W: the “ddG of mutation (higher = less stable)” value is 4.18 kcal/mol, the denaturant m value is 3.17 kcal/mol/M, the “denaturant midpoint” value turned out to be 1.81 M and the unfolding free energy came out at 5.75 kcal/mol. Moreover, the “change of melting temperature, mutant” value (Thermal) is -7.1 °C and -11.5 °C.

On to W55A W120A F61W, for which the “change of melting temperature, mutant” value (Thermal) was -18 °C and -15.7 °C.

W55F F61W: the “ddG of mutation (higher = less stable)” value was 4.14 kcal/mol, the denaturant m value came to 3.37 kcal/mol/M, the “denaturant midpoint” value was 1.72 M and the unfolding free energy stood at 5.79 kcal/mol. For the same variant, the “change of melting temperature, mutant” value (Thermal) is -6.2 °C and -9.1 °C.

Regarding W55A, the “ddG of mutation (higher = less stable)” value is 8.93 kcal/mol, the denaturant m value amounted to 1.92 kcal/mol/M, the “denaturant midpoint” value came to 0.75 M and the unfolding free energy came to 1 kcal/mol.
